Target: T1, recombinant GDF11 (UniProt O95390)
T1 sequence (looked up): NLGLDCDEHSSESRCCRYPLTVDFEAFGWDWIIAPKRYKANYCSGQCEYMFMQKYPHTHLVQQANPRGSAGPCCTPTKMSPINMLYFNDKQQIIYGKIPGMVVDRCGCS
Assay: sandwich ELISA, plates coated with mActRIIA-Fc, detected with anti-GDF8/11 antibodies

lowest concentration detected in ELISA: 100 pg/mL
Substance: mActRIIA-Fc (extracellular domain of murine ActRIIA fused to a murine Fc domain; the murine counterpart of SEQ ID NO:7) (from UniProt P27038 21-135) (Fc fusion)
